The assay addresses T1, TER94 (endogenous, the fly VCP homolog) (Drosophila (endogenous in flies), UniProt Q7KN62 1-801).
T1 construct: TER94, the Drosophila homolog of VCP, endogenous, detected with anti-VCP; also called TER94^WT; source: endogenous, whole fly lysate
The experiment in a line: co-IP; anti-VCP on protein A-agarose; lysates of wild-type flies untreated or kept at 0°C for two hours and recovered for four hours at 25°C; blot with anti-VCP and anti-Derlin-1. The following applies: partners not purified.

T1 sequence (Q7KN62 whole entry): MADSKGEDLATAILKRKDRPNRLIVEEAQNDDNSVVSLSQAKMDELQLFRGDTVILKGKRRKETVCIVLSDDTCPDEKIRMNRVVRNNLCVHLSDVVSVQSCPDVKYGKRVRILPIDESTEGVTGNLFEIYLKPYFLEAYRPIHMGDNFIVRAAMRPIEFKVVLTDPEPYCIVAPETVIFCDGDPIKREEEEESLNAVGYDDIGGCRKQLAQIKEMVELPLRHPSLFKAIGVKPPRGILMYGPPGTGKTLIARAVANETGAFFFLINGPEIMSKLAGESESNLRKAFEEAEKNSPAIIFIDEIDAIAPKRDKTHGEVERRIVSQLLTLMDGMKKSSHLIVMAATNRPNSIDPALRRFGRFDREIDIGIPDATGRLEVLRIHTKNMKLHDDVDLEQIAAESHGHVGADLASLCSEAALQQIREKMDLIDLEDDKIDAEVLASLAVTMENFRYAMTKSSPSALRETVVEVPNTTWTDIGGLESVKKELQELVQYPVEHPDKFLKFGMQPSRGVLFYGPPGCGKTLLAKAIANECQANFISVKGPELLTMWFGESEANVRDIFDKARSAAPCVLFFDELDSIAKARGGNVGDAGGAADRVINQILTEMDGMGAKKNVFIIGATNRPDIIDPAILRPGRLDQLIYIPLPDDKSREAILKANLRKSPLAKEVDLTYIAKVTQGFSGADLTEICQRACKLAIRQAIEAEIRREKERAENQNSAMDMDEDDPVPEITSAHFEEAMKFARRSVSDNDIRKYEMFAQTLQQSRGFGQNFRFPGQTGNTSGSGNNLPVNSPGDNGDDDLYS

B1: Derlin-1 (endogenous, fly) (natural protein, Drosophila (endogenous in flies), UniProt Q9VQ57 1-245, looked up)
chain: MDAGVWYRSLPRFTRYWLTATVVLSMLCRFDVIPLHWLHLDRSAVFSKLQLWRCMTSLFVFPISSNTAFHFLINCFFIVQYSSKLEKDQYSRSPADYLYLLIVSAVLANIGGMIFNVYFLMDTLVLAITYIWCQLNKDVTVSFWFGTRFKAMYLPWVLAAFEFIFHFSLASLVGIFVGHVYYFFKFQYSQDLGGTPLLETPQFLKRLVPDVSGGFGGFGLPPESRAPPRQATESPWGRGMTLGRN
notes: Derlin-1, Drosophila, endogenous protein of about 27 kD (predicted 28.25 kD); also called endogenous Derlin-1; source: endogenous, whole fly lysate
Regarding B1, the “fold increase of the level of Derlin-1/TER94 complexes after cold treatment against untreated (normalised to TER94)” value is 4.9 ± 0.98 fold.

Values taken from article PMC4177747, “Derlin-1 Regulates Mutant VCP-Linked Pathogenesis and Endoplasmic Reticulum Stress-Induced Apoptosis” (PLoS Genetics, 2014).
